Measurements reported in patent CN112390885A (KAIHUI SCIENCE & TECH DEVELOPMENT SHANGHAI CO LTD, dated 2021).
Numbering of substitutions follows the chain as printed.

T1: 人TROP2-his (CAT#10428-H08H-100, Sino biological) (human, UniProt P09758 27-274)
T1 construct: Bought; also called 人TROP2-his抗原; not shown: His tag
T1 sequence (looked up): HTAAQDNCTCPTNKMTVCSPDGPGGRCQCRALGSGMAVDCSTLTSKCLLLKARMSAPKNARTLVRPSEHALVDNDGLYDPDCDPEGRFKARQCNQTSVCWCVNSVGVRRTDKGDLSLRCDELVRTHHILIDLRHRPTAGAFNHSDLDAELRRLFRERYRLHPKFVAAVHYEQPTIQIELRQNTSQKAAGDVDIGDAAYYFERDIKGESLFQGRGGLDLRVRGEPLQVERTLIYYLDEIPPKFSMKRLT

T2: 食蟹猴TROP2, full length, on CHOK1 cells (CHOK1-cTROP2 2B2C2) (cynomolgus monkey, UniProt P09758 27-323 (human entry))
T2 chain: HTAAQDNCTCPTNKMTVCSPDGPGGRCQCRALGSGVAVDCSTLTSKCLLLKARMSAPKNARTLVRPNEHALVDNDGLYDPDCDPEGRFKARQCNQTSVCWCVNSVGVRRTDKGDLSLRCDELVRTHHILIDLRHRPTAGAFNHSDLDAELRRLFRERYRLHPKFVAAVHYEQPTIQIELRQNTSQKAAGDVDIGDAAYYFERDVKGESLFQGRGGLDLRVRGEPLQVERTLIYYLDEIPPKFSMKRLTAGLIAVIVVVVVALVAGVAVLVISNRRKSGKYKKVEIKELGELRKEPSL

T3: 人源TROP2, full length, on transfected cells (CHOK1-hTROP2 2B2; 293F-TROP2 6F6) (human, UniProt P09758 27-323)
T3 construct: Full-length human TROP2 expressed from pIRES in CHOK1 or HEK293 cells; the host cell is named under assay; also called CHOk1-TROP2; CHOK-TROP2
T3 sequence: T2 chain with V36M, N67S, V204I, V266M, S272T

T4: 人源TROP2-hFc蛋白 (免疫原A; human TROP2 Thr88-Thr274 with human IgG Fc tag) (human, UniProt P09758 88-274)
T4 construct: also called hTROP2-hFc; 人TROP2-hFc蛋白; not shown: human IgG Fc fragment (hFc) of the pCpC vector
T4 sequence: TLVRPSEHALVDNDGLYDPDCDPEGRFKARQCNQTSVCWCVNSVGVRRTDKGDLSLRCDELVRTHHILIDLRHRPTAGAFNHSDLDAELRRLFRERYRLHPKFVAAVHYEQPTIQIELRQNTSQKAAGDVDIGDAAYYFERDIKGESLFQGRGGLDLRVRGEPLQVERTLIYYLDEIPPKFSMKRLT

B1: hRS7 (antibody, V domains shown)
VH: QVQLQQSGSELKKPGASVKVSCKASGYTFTNYGMNWVKQAPGQGLKWMGWINTYTGEPTYTDDFKGRFAFSLDTSVSTAYLQISSLKADDTAVYFCARGGFGSSYWYFDVWGQGSLVTVSS
VL: DIQLTQSPSSLSASVGDRVSITCKASQDVSIAVAWYQQKPGKAPKLLIYSASYRYTGVPDRFSGSGSGTDFTLTISSLQPEDFAVYYCQQHYITPLTFGAGTKVEIKR
B2: hTINA1-H1L1 (antibody, V domains shown)
VH: QVQLVQSGAEVKKPGASVKVSCKASGYTFTTAGMQWVRQAPGQGLEWMGWINTHSGVPKYAEDFKGRVTISADTSTSTAYLQLSSLKSEDTAVYYCARSGFGSSYWYFDVWGQGTLVTVSS
VL: B1 VL with L4M, S20T, I31T, D60S, A100Q, V104L
B3: 嵌合抗体11E8-3 (heavy chain CDR2 DG→EG) (antibody, human IgG1, V domains shown)
VH: QVQLQQSGAELVRPGSSVKISCKASGVAFSTYWMNWVRQRPGQGLEWIGQIYPGEGDTNSNGKFKGKATLTADKSSSTAYMQFSSLTSEDSAVYFCATRIPDHYGSDWGYFDVWGAGTTV
VL: DIVLTQSPASLAVSLGQRATISCRASKSVSTSGYSYMHWYQQKPGQPPKLLIYLASNLESGVPARFSGSGSGTDFTLNIHPVEEEDAATYYCQHSRELPPTFGGGTKLEIK
B4: TROP2抗体 11E8E6D11 (antibody, V domains shown)
VH: B3 VH with E55D
VL: B3 VL
notes: Mouse hybridoma antibody
B5: 嵌合抗体11E8(DA,NA) (antibody, V domains shown)
VH: B3 VH with E55D, G56A, G62A
VL: B3 VL
B6: 嵌合抗体11E8-2 (heavy chain CDR2 DG→SG) (antibody, human IgG1, V domains shown)
VH: B3 VH with E55S
VL: B3 VL
B7: 嵌合抗体11E8 (野生型) (antibody, V domains shown)
VH: B3 VH with E55D
VL: B3 VL
notes: also called 野生型抗体嵌合抗体11E8
B8: 嵌合抗体11E8-4 (heavy chain CDR2 DG→DA) (antibody, human IgG1, V domains shown)
VH: B3 VH with E55D, G56A
VL: B3 VL
notes: Human IgG1/kappa chimera; also called 突变体嵌合抗体11E8-4
B9: 嵌合抗体11E8-1 (heavy chain CDR2 NG→NA) (antibody, human IgG1, V domains shown)
VH: B3 VH with E55D, G62A
VL: B3 VL
notes: Human IgG1/kappa chimera; also called 突变抗体嵌合抗体11E8-1

Key:
[1] = target: T1, 人TROP2-his (CAT#10428-H08H-100, Sino …); assay: SPR (Biacore), antibody captured by human Fab capture on CM5, human TROP2-his flowed
[2] = target: 人源TROP2, full length, on transfected cells (CHOK1-hTROP2 2B2; 293F-TROP2 6F6) (human) (UniProt P09758); assay: FACS on CHOK1-TROP2 cells
[3] = target: T2, 食蟹猴TROP2, full length, on CHOK1 cells …; assay: FACS on CHOK1-cTROP2 cells
[4] = target: T3, 人源TROP2, full length, on transfected …; assay: FACS on CHOK1-hTROP2 cells
[5] = target: T4, 人源TROP2-hFc蛋白 (免疫原A; human TROP2 …); assay: ELISA, hTROP2-hFc coated at 1.0 μg/mL
[6] = target: T3, 人源TROP2, full length, on transfected …; assay: FACS on CHOK1-TROP2 cells (reference antibody)
[7] = target: T3, 人源TROP2, full length, on transfected …; assay: FACS on CHOK1-TROP2 cells

Row | Binder | Kd [1] | koff [1] | kon [1] | also measured
1 | B1 | 1.21 nM | 0.000271 s⁻¹ | 225000 M⁻¹ s⁻¹ | –
2 | B2 | 20.7 nM | 0.00293 s⁻¹ | 141000 M⁻¹ s⁻¹ | –
3 | B3 | – | – | – | decrease of maximal MFI against wild-type chimeric 11E8 [2]: 53%
4 | B4 | – | – | – | binding result [3]: binds; binding result [4]: binds; binding result [5]: binds
5 | B5 | 10.3 nM | 0.00107 s⁻¹ | 105000 M⁻¹ s⁻¹ | –
6 | B6 | – | – | – | decrease of maximal MFI against wild-type chimeric 11E8 [2]: 23%
7 | B7 | – | – | – | binding result [6]: binds
8 | B8 | – | – | – | binding result [7]: binds
9 | B9 | – | – | – | binding result [7]: binds
